Biological target: the molecule itself
Experiment: method not named, self-association

B1: APLE L43D variant (enzyme)
chain: GQPASPPVVDTAQGRVLGKYVSLEGLAQPVAVFLGVPFAKPPDGSLRFAPPQPAEPWSFVKNTTSYPPMCCQEPIGGQMLSDLFTNRKERLIPEFSEDCLYLNIYTPADLTKRGRLPVMVWIHGGGLVVGGASTYDGLALAAHENVVVVAIQYRLGIWGFFSTGDEHSRGNWGHLDQVAALHWVQENIANFGGDPGSVTIFGESAGGESVSVLVLSPLAKNLFHRAISESGVAFTAGLVRKDMKAAAKQIAVLAGCKTTTSAVFVHCLRQKSEDELLDLTLKMKFFALDLHGDPRESHPFLTTVVDGVLLPKMPEEILAEKDFNTVPYIVGINKQEFGWLLPTMMGFPLSEGKLDQKTATSLLWKSYPIANIPEELTPVATDKYLGGTDDPVKKKDLFLDLMGDVVFGVPSVTVARQHRDAGAPTYMYEFQYRPSFSSDKKPKTVIGDHGDEIFSVFGFPLLKGDAPEEEVSLSKTVMKFWANFARSGNPNGEGLPHWPMYDQEEGYLQIGVNTQAAKRLKGEEVAFWNDLLSKEAAKKPPKIKHAEL
Does B1 bind?
Result: no binding

From US20120100582A1 (DSM IP ASSETS B V, published 2012)
